Test results taken from US12066430.

Key:
Assay in all cases: cell-based or functional assay
[1] = biological target: HLA-A2 on control CD80+HLA-A2+ K562 cells (no defined peptide) (human)
[2] = biological target: single-chain trimer (SCT) of HLA-A2 with the USP7 mutant 9-mer peptide …, on K562 cells (human)
[3] = biological target: single-chain trimer (SCT) of HLA-A2/MART1 26-35(A27L), on cells (human)
[4] = biological target: single-chain trimer (SCT) of HLA-A2/NYESO1 157-165(C165V), on cells (human)

F5 TCR (HLA-A2/MART1 26-35-specific), expressed on cells
percentage of trogocytosis^+ control CD80^+HLA-A2^+ K562 cells (NYESO1-K562 dilution experiment) [1]: 0.35%
percentage of trogocytosis^+ control cells (MART1-K562 dilution experiment) [1]: 0.46%
Specific Cytotoxic Killing (Avg. % Specific Lysis), E:T 2 to 1 (Avg. % Specific Lysis) [2]: 0.0644
Specific Cytotoxic Killing (Avg. % Specific Lysis), E:T 4 to 1 (Avg. % Specific Lysis) [2]: 0.0366
Specific Cytotoxic Killing (Avg. % Specific Lysis), E:T 8 to 1 (Avg. % Specific Lysis) [2]: 0.0406
Specific Cytotoxic Killing (Avg. % Specific Lysis), E:T 16 to 1 (Avg. % Specific Lysis) [2]: 0
Specific Cytotoxic Killing (Avg. % Specific Lysis), E:T 2 to 1 (Avg. % Specific Lysis) [3]: 0.16
Specific Cytotoxic Killing (Avg. % Specific Lysis), E:T 4 to 1 (Avg. % Specific Lysis) [3]: 0.268
Specific Cytotoxic Killing (Avg. % Specific Lysis), E:T 8 to 1 (Avg. % Specific Lysis) [3]: 0.377
Specific Cytotoxic Killing (Avg. % Specific Lysis), E:T 16 to 1 (Avg. % Specific Lysis) [3]: 0.593
percentage of trogocytosis^+ MART1-K562 cells (one per 10,000 control cells) [3]: 73.4%
share of MART1-K562 among trogocytosis^+ target cells (1:1 mixture, co-incubated with F5-Jurkat) [3]: 94.9%
share of MART1-K562 among trogocytosis^- target cells (1:1 mixture, co-incubated with F5-Jurkat) [3]: 18.8%
shift in LNGFR and TCR staining of K562 target cells [3]: 2 to 3 fold
shift in streptavidin staining of K562 target cells (transfer of biotinylated Jurkat membrane proteins) [3]: 3.5 fold
trogocytosis (TCR transfer to K562) of CD8 co-expressing Jurkat cells relative to those only expressing TCR [3]: 3 fold
percentage of trogocytosis^+ NYESO1-K562 target cells (diluted 1:10,000 in control cells) [4]: 0%
share of NYESO1-K562 among trogocytosis^- target cells (1:1 mixture, co-incubated with F5-Jurkat) [4]: 76.3%

1G4 TCR (A2/NYESO1 157-165-specific), expressed on cells
percentage of trogocytosis^+ control CD80^+HLA-A2^+ K562 cells (NYESO1-K562 dilution experiment) [1]: 0.33%
percentage of trogocytosis^+ control cells (MART1-K562 dilution experiment) [1]: 0.41%
percentage of trogocytosis^+ MART1-K562 cells (one per 10,000 control cells) [3]: 1.6%
share of MART1-K562 among trogocytosis^- target cells (1:1 mixture, co-incubated with 1G4-Jurkat) [3]: 70.8%
percentage of trogocytosis^+ NYESO1-K562 target cells (diluted 1:10,000 in control cells) [4]: 70.8%
share of NYESO1-K562 among trogocytosis^+ target cells (1:1 mixture of NYESO1-K562 and MART1-K562, read by TCR dextramer staining) [4]: 95.1%
share of NYESO1-K562 among trogocytosis^- target cells (1:1 mixture, co-incubated with 1G4-Jurkat) [4]: 23.7%
trogocytosis (TCR transfer to K562) of CD8 co-expressing Jurkat cells relative to those only expressing TCR [4]: 3 fold
